Measurements published in patent US20230144436A1, “MUSCLE TARGETING COMPLEXES AND USES THEREOF FOR TREATING MYOTONIC DYSTROPHY” (Dyne Therapeutics, Inc., priority 2020, published 2023).

Molecular target: human transferrin receptor 1 (human) (UniProt P02786)
Test: Carterra LSA SPR array, IgG captured on anti-IgG lawn, hTfR1 as analyte, 25 C, 1:1 Langmuir fit

human transferrin receptor 1 (human), sequence (P02786 89-760 limits assumed): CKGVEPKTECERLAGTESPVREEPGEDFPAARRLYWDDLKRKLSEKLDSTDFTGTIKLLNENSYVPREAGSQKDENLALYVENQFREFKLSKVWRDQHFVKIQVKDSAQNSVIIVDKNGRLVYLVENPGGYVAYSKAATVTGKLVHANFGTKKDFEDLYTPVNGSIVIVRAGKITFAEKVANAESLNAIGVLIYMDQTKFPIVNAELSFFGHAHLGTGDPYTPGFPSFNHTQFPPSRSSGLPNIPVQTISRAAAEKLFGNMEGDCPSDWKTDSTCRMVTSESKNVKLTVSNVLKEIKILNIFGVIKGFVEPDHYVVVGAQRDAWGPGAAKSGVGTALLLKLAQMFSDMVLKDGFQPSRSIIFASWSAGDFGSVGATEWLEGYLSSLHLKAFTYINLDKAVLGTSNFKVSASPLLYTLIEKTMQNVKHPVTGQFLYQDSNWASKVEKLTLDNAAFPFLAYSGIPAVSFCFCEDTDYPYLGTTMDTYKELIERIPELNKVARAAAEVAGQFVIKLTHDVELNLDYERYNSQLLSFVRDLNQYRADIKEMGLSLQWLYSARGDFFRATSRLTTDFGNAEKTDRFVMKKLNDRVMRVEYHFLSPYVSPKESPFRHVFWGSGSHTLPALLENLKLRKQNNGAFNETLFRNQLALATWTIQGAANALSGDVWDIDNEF

Substance: OKT9 (antibody)
- Kd: 0.536 nM
- kon: 774000 M⁻¹ s⁻¹
